Measured values: publication PMC7485978, “A tyrosine phosphoregulatory system controls exopolysaccharide biosynthesis and biofilm formation in Vibrio cholerae” (PLoS Pathogens, 2020)

How the values were obtained:
[1] = biological target: VpsO-503^(E519A, R522A, R525A) kinase domain; assay: SEC-MALS; 25 uL of each VpsO protein at 1.5 mg/mL injected on a silica-based SEC analytical HPLC column; 25 mM Tris pH 8.0, 50 mM NaCl, 1 mM DTT; room temperature
[2] = biological target: VpsU, low-molecular-weight phosphotyrosine protein phosphatase; assay: SEC

| Substance | stoichiometry N [1] | stoichiometry N [2] |
| --- | --- | --- |
| VpsO-503^(E519A, R522A, R525A) kinase domain (domain or fragment) | 2 | – |
| VpsU, low-molecular-weight phosphotyrosine protein phosphatase (enzyme) | – | 2 |
